“And” between values parts separate entries of the source, which are not always exact repeats. Identical values can stand only once.
Target: PtdIns5P 4-kinase IIβ, genomically tagged with a FLAG-(His6)2 tag (DT40 cell line JPR3) (chicken (endogenous in DT40))
Test: affinity purification with mass spectrometry

- ratio IIβ/IIα in the pull-down (peptide set 559/565): 1.39 and 1.37 and 1.75
- ratio IIβ/IIα in the pull-down (peptide set 829/828): 0.92 and 1.41 and 1.47
Substance: PtdIns5P 4-kinase IIα, endogenous and untagged (in JPR3 DT40 cells) (from UniProt Q5F356 1-405) (enzyme)

From article PMC2943749
